Values belong to the binder of their own block, whether it stands above or below them.
Target: T1, Aβ 1-42 peptide (human, UniProt P05067 672-713)
T1 construct: domain: Aβ 1-42; also called Aβ42
Assay: competitive ELISA on Aβ1-42; labelled antibody biotinylated murine 12B4

T1 sequence (P05067 672-713 limits assumed): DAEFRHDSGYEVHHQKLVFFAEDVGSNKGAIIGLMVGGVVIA

binding result: binds
B1: chimeric 12B4 (antibody, V domains shown)
VH: QVTLKESGPGILQPSQTLSLTCSFSGFSLSTNGMGVSWIRQPSGKGLEWLAHIYWDEDKRYNPSLKSRLTISKDTSNNQVFLKITNVDTADTATYYCARRRIIYDVEDYFDYWGQGTTLTVSS
VL: DVLMTQTPLSLPVSLGDQASISCRSSQNIVHSNGNTYLEWYLQKPGQSPKLLIYKVSNRFSGVPDRFSGSGSGTDFTLKISRVEAEDLGVYYCFQGSHVPLTFGAGTKLELK
notes: Murine 12B4 variable regions joined to human gamma 1 and C kappa constant regions (vectors pCMV-hγ1 and pCMV-hκ1), expressed in COS cells; also called chimeric 12B4 antibody

binding result: binds
B2: murine 12B4 (antibody, V domains shown)
VH: B1 VH
VL: B1 VL
notes: Mouse monoclonal antibody of the IgG2a isotype; also called mAb 12B4; mouse 12B4
